Patent US20240209062A1 (INVETX, published 2024)
Residue numbers refer to the chain shown, from its start. Names and notes keep the numbering of the source.

B1: IgG with feline IgG1a Fc variant S252Y, I377Y (antibody)
heavy: DVQLVESGGDLVKPGGSLRLTCVASGLSLTSDSMSWVRQAPGKGLQWVSTLWSNRGTYYTDSVKGRFTISKDNAENTLYLQMNNLKTEDTATYYCASIYYYEADYLHWYFDFWGQGALVTVSSASTTAPSVFPLAPSCGTTSGATVALACLVLGYFPEPVTVSWNSGALTSGVHTFPAVLQASGLYSLSSMVTVPSSRWLSDTFTCNVAHPPSNTKVDKTVRKTDHPPGPKPCDCPKCPPPEAAGGPSIFIFPPKPKDTLYISRTPEVTCLVVDLGPDDSDVQITWFVDNTQVYTAKTSPREEQFNSTYRVVSVLPILHQDWLKGKEFKCKVNSKSLPSPIERTISKAKGQPHEPQVYVLPPAQEELSRNKVSVTCLIKSFHPPDYAVEWEITGQPEPENNYRTTPPQLDSDGTYFVYSKLSVDRSHWQRGNTYTCSVSHEALHSHHTQKSLTQSPG
light: EIQMTQSPTSLSASVGDRVTITCRASEGIANNLSWYQQTPGKAPKLLIYATSNLHSGVPSRFSGSGSGTDFTLTISSLQPEDFATYYCQQGFKWPLTFGGGTKLEITRSDAQPSVFLFQPSLDELHTGSASIVCILNDFYPKEVNVKWKVDGVVQNKGIQESTTEQNSKDSTYSLSSTLTMSSTEYQSHEKFSCEVTHKSLASTLVKSFNRSECQRE
notes: Printed '1377Y' read as I377Y; IgG1a constant domain with MALA mutations (M234A, L244A as printed); variable domains from WO 2023/97275; also called S252Y, 1377Y
B2: IgG with feline IgG1a Fc variant S428M, R392D (antibody)
heavy: B1 heavy with Y261S, Y386I, R403D, S439M
light: B1 light
notes: IgG1a constant domain with MALA mutations (M234A, L244A as printed); variable domains from WO 2023/97275
B3: IgG with feline IgG1a Fc variant S428M, T286E (antibody)
heavy: B1 heavy with Y261S, T295E, Y386I, S439M
light: B1 light
notes: as for B2
B4: IgG with feline IgG1a Fc variant S428L, I377Y (antibody)
heavy: B1 heavy with Y261S, S439L
light: B1 light
notes: Printed '1377Y' read as I377Y; IgG1a constant domain with MALA mutations (M234A, L244A as printed); variable domains from WO 2023/97275; also called S428L, 1377Y
B5: IgG with feline IgG1a Fc variant S428L, I377L (antibody)
heavy: B1 heavy with Y261S, Y386L, S439L
light: B1 light
notes: Printed '1377L' read as I377L; IgG1a constant domain with MALA mutations (M234A, L244A as printed); variable domains from WO 2023/97275; also called S428L, 1377L
B6: IgG with feline IgG1a Fc variant S428M, T286D (antibody)
heavy: B1 heavy with Y261S, T295D, Y386I, S439M
light: B1 light
notes: as for B2
B7: IgG with feline IgG1a Fc variant S252Y, T286D (antibody)
heavy: B1 heavy with T295D, Y386I
light: B1 light
notes: as for B2
B8: IgG with feline IgG1a Fc variant S428M, L309V (antibody)
heavy: B1 heavy with Y261S, L318V, Y386I, S439M
light: B1 light
notes: as for B2
B9: IgG with feline IgG1a Fc variant S428L, L309D (antibody)
heavy: B1 heavy with Y261S, L318D, Y386I, S439L
light: B1 light
notes: as for B2
B10: IgG with feline IgG1a Fc variant S428M, R301V (antibody)
heavy: B1 heavy with Y261S, R310V, Y386I, S439M
light: B1 light
notes: as for B2
B11: IgG with feline IgG1a Fc variant S428L, R392E (antibody)
heavy: B1 heavy with Y261S, Y386I, R403E, S439L
light: B1 light
notes: as for B2
B12: IgG with feline IgG1a Fc variant S428L, T286D (antibody)
heavy: B1 heavy with Y261S, T295D, Y386I, S439L
light: B1 light
notes: as for B2
B13: IgG with feline IgG1a Fc variant S428L, R301V (antibody)
heavy: B1 heavy with Y261S, R310V, Y386I, S439L
light: B1 light
notes: as for B2
B14: IgG with feline IgG1a Fc variant S428M, L309E (antibody)
heavy: B1 heavy with Y261S, L318E, Y386I, S439M
light: B1 light
notes: as for B2
B15: IgG with feline IgG1a Fc variant S252Y, L309D (antibody)
heavy: B1 heavy with L318D, Y386I
light: B1 light
notes: as for B2
B16: IgG with feline IgG1a Fc variant S252Y, L309V (antibody)
heavy: B1 heavy with L318V, Y386I
light: B1 light
notes: as for B2
B17: IgG with feline IgG1a Fc variant S252Y, R301L (antibody)
heavy: B1 heavy with R310L, Y386I
light: B1 light
notes: as for B2
B18: IgG with feline IgG1a Fc variant S252Y, R301V (antibody)
heavy: B1 heavy with R310V, Y386I
light: B1 light
notes: as for B2
B19: IgG with feline IgG1a Fc variant S428M, R392E (antibody)
heavy: B1 heavy with Y261S, Y386I, R403E, S439M
light: B1 light
notes: as for B2
B20: IgG with feline IgG1a Fc variant S252Y, T286E (antibody)
heavy: B1 heavy with T295E, Y386I
light: B1 light
notes: as for B2
B21: IgG with feline IgG1a Fc variant S428M, I377L (antibody)
heavy: B1 heavy with Y261S, Y386L, S439M
light: B1 light
notes: Printed '1377L' read as I377L; IgG1a constant domain with MALA mutations (M234A, L244A as printed); variable domains from WO 2023/97275; also called S428M, 1377L
B22: IgG with feline IgG1a Fc variant S428M, R301L (antibody)
heavy: B1 heavy with Y261S, R310L, Y386I, S439M
light: B1 light
notes: as for B2
B23: IgG with feline IgG1a Fc variant S252Y, R301Y (antibody)
heavy: B1 heavy with R310Y, Y386I
light: B1 light
notes: as for B2
B24: IgG with feline IgG1a Fc variant S252Y, R392D (antibody)
heavy: B1 heavy with Y386I, R403D
light: B1 light
notes: as for B2
B25: IgG with feline IgG1a Fc variant S428M (antibody)
heavy: B1 heavy with Y261S, Y386I, S439M
light: B1 light
notes: as for B2
B26: IgG with feline IgG1a Fc variant S252Y, R392E (antibody)
heavy: B1 heavy with Y386I, R403E
light: B1 light
notes: as for B2
B27: IgG with feline IgG1a Fc variant S428M, Q311V (antibody)
heavy: B1 heavy with Y261S, Q320V, Y386I, S439M
light: B1 light
notes: as for B2
B28: IgG with feline IgG1a Fc variant S428M, R301Y (antibody)
heavy: B1 heavy with Y261S, R310Y, Y386I, S439M
light: B1 light
notes: as for B2
B29: IgG with feline IgG1a Fc variant S428L, R392D (antibody)
heavy: B1 heavy with Y261S, Y386I, R403D, S439L
light: B1 light
notes: as for B2
B30: IgG with feline IgG1a Fc variant S428M, L309D (antibody)
heavy: B1 heavy with Y261S, L318D, Y386I, S439M
light: B1 light
notes: as for B2
B31: IgG with feline IgG1a Fc variant S428L, R301Y (antibody)
heavy: B1 heavy with Y261S, R310Y, Y386I, S439L
light: B1 light
notes: as for B2
B32: IgG with feline IgG1a Fc variant S428M, I377Y (antibody)
heavy: B1 heavy with Y261S, S439M
light: B1 light
notes: Printed '1377Y' read as I377Y; IgG1a constant domain with MALA mutations (M234A, L244A as printed); variable domains from WO 2023/97275; also called S428M, 1377Y
B33: IgG with feline IgG1a Fc variant S428L, R301L (antibody)
heavy: B1 heavy with Y261S, R310L, Y386I, S439L
light: B1 light
notes: as for B2
B34: IgG with feline IgG1a Fc variant S428L (antibody)
heavy: B1 heavy with Y261S, Y386I, S439L
light: B1 light
notes: as for B2

biological target: T1, feline FcRn (soluble portion of large subunit p51 isoform X1 with C-terminal 6xHis-tag, co-expressed with … (feline, UniProt Q5MGS7 21-118)); assay: SPR, Biacore T200, IgG captured on Protein L chip, feline FcRn flowed over, pH 5.9, 1:1 fit
T1 construct: Heterodimer made by co-expression in CHO cells, purified on HisTrap FF; also called FcRn complex
T1 sequence (chain, as listed by the source limits assumed, chain 1 of 2): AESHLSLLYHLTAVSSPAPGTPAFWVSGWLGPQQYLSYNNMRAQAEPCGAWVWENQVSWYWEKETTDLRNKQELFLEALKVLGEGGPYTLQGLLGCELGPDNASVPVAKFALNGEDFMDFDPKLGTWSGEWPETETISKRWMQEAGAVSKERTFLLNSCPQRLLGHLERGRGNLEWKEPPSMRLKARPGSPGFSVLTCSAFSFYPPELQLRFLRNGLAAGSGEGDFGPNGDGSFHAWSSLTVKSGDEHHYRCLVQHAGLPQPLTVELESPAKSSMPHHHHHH
T1 sequence (Q5MGS7 other isoform, or with tags, fused parts or gaps limits assumed, chain 2 of 2): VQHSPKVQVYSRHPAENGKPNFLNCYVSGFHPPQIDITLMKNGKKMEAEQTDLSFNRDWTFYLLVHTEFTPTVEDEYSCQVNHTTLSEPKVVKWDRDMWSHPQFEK
Procedure: The feline FcRn binding experiments at pH 5.9 were completed on a BIACORE™ T200 instrument. A Series S Protein L Sensor chip (Cytiva, Cat. No. BR29205137) was used to capture the antibody variants via the kappa (κ) light chain. The feline variants were captured onto the protein L chip at a flow rate of 10 μL/min for 60 seconds. 1×PBX-P+(Cytiva Cat 28995084) was adjusted to pH 5.9 for the running buffer. The feline FcRn was flowed over the sensor chip at 30 μL/min for 120 seconds contact time and 600 seconds dissociation time. Regeneration of the flow cells was completed by flowing over 10 mM glycine, pH 1.7 at 30 μL/min for 30 seconds. The data were evaluated by the BIACORE™T200 Evaluation software v3.2.1 by fitting to a 1:1 kinetic interaction model.

| Kd [nM] | koff [s⁻¹] | kon [M⁻¹ s⁻¹] | Binder |
| --- | --- | --- | --- |
| 36.1 | 0.0258 | 716000 | B1 |
| 101 | 0.0795 | 789000 | B2 |
| 27.4 | 0.0292 | 1.07e+06 | B3 |
| 107 | 0.117 | 1.09e+06 | B4 |
| 87.7 | 0.0723 | 819000 | B5 |
| 34.9 | 0.0372 | 1.07e+06 | B6 |
| 15.2 | 0.00955 | 631000 | B7 |
| 31.3 | 0.0358 | 1.15e+06 | B8 |
| 200 | 0.12 | 597000 | B9 |
| 98.5 | 0.0801 | 812000 | B10 |
| 96.5 | 0.0772 | 801000 | B11 |
| 33.4 | 0.0333 | 1e+06 | B12 |
| 109 | 0.0832 | 763000 | B13 |
| 45.6 | 0.0413 | 905000 | B14 |
| 56.7 | 0.0284 | 502000 | B15 |
| 18.7 | 0.0139 | 747000 | B16 |
| 38.8 | 0.0277 | 714000 | B17 |

| Kd [nM] | koff [s⁻¹] | kon [M⁻¹ s⁻¹] | Binder |
| --- | --- | --- | --- |
| 38.7 | 0.028 | 724000 | B18 |
| 97.8 | 0.0766 | 784000 | B19 |
| 12.1 | 0.00783 | 650000 | B20 |
| 76.2 | 0.0751 | 981000 | B21 |
| 103 | 0.0835 | 809000 | B22 |
| 37.6 | 0.0262 | 696000 | B23 |
| 25 | 0.0296 | 1.19e+06 | B24 |
| 70.1 | 0.0702 | 1.01e+06 | B25 |
| 24.1 | 0.0287 | 1.19e+06 | B26 |
| 28.4 | 0.0319 | 1.12e+06 | B27 |
| 98.7 | 0.082 | 830000 | B28 |
| 104 | 0.0934 | 904000 | B29 |
| 177 | 0.104 | 592000 | B30 |
| 99.1 | 0.0706 | 712000 | B31 |
| 70.8 | 0.0636 | 900000 | B32 |
| 115 | 0.116 | 1.01e+06 | B33 |
| 64 | 0.0619 | 968000 | B34 |
